For test [1], the target named is T1, SARS-CoV-2 receptor binding domain (RBD) (SARS-CoV-2, GenBank MN985325.1 …, UniProt P0DTC2). Description: BLI. As to conditions: both partners purified.
For test [2], the target named is T1, SARS-CoV-2 receptor binding domain (RBD). Description: ELISA. As to conditions: both partners purified. Background: In an ELISA, binding on a coated surface is turned into a signal by an enzyme label.

Substitutions are numbered along the chain they refer to.

B1: C936 (antibody, V domains shown)
VH: EVQLVESGGGLIQPGGSLRLSCAASGFTVSSNYMSWVRQAPGKGLEWVSVIYSGGSTFYADSVKGRFTISRDNSKNTLYLQMNSLRAEDTAVYYCARDLGTGLFDYWGQGTLVTVSS
VL: DIQLTQSPSFLSASVGDRVTITCRASQGISSYLAWYQQKPGKAPKLLIYAASTLQSGVPSRFSGSGSGTEFTLTISSLQPEDFATYYCQQLDSYPPGTFGPGTKVDIK
notes: source: recombinant, purified
In the case of B1, the affinity in test [1], expressed as Kd, was 157 nM.

B2: C1010 (antibody, V domains shown)
VH: QVQLVESGGGVVQPGRSLRLSCAASGFTFSSYAMHWVRQAPGKGLEWVAVISYDGSNKYYADSVKGRFTISRDNSKNTLYLQMNSLRAEDTAVYYCAKKGQPYCGGDCYFYYFDYWGQGTLVTVSS
VL: DIQMTQSPSSLSASLGDRVTITCQASQDISNYLNWYQQKPGKAPKLLIYDASNLETGVPSRFSGSGSGTDFTFTISSLQPEDIATYYCQQYDNLPPITFGQGTRLEIK
notes: source: recombinant, purified
Consider B2, for which the affinity in test [1], expressed as Kd, was 16.3 nM.

B3: C1011 (antibody, V domains shown)
VH: QVQLVESGGGVVQPGRSLRLSCAVSGFTFSHYAMHWVRQAPGKGLEWVAVISYDGADKYYADSVRGRFTIARDNSKNTLFLQMSSLRPEDTAVYYCAKKGQPYCGGDCHFYYLDYWGQGTLVTVSS
VL: B2 VL with L15V, Y32H, P80A
notes: source: recombinant, purified
On to B3, for which binding in test [1] was characterised by a dissociation constant (Kd) of 0.0121 nM.

B4: C916 (antibody, V domains shown)
VH: EVQLVESGGGLVQPGGSLRLSCAASGFTFSNYDMHWVRQATGRGLEWVSTIGTAGDTYYPGSVKGRFTISRENAKNSLYLQMNSLRAGDTALYYCARVRYDSSGYFWSLDYWGQGTLVTVSS
VL: not shown
notes: source: recombinant, purified
Consider B4, for which the Kd – broadly, the constant that tells how readily two partners part at equilibrium – in test [1] was 2.92 nM.

B5: C917 (antibody, V domains shown)
VH: B4 VH with R43K, E46D, L92V, Y100F, S102T
VL: not shown
notes: source: recombinant, purified
For B5, in test [1], the Kd worked out at 0.999 nM.

B6: C841 (antibody, V domains shown)
VH: EVQLVESGGGLVQPGGSLRLSCAASGFTFSIFSMNWVRQAPGKGLEWISYISSSSGSRHYADSVKGRFTISRDNAKNSLYLQMNNLRDEDTAMYYCAREAHDGALTGYGDYLNWFDPWGQGVLVTVSS
VL: SYELTQPPSVSVAPGKTARIPCGGDSVGSKSVHWYQQKSGQAPVLVIHSDSDRPSGIPERFSGSNSGNTATLTITGVAAGDEADYYCHVWDTIGDRFYWVFGGGTKLTVL
notes: source: recombinant, purified
As to B6, the dissociation constant Kd in test [1] turned out to be 6.08 nM.

B7: C1015 (antibody, V domains shown)
VH: QVQLQESGPRLVKPSGSLSLTCAVSGGSLSSSNWWNWVRQSPEKGLEWIGEIFHSGSTYYNPSLKSRVTISVDKSKNHFSLNLRSVTAADTAVYYCAGSYSNYIGGVWFDPWGQGTLVTVSS
VL: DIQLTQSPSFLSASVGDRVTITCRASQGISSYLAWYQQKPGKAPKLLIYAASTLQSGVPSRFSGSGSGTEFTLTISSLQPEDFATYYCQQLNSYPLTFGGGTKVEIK
notes: source: recombinant, purified
Turning to B7, the binding result in test [2] is on record as “no binding (tested: >1000 ng/ml)”.

B8: C908 (antibody, V domains shown)
VH: EVQLVQSGAEVKKPGESLKISCKASGYSFTIYWIGWVRQMPGKGLEWMGIIYPGESETRYSPSFQGQVTISADKSISTAYLQWRSLKASDTAMYYCARGGPPGGVKLELTDYWGQGTLVTVSS
VL: not shown
notes: source: recombinant, purified
The molecule B8 registered a Kd in test [1] of 0.00384 nM.

Source of the values: paper PMC8277577 (Nature, 2021).
